Reference: the supplement of paper PMC9732359
± gives the uncertainty stated by the source.

Test: protein stability index of a GFP-peptide fusion (yeast GPS) (PSI 1-4); higher = more stable; sorted into four equal gates, so the index is relative within each strain
Method in brief: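 Peptides tiling yeast proteins in 17-residue segments were fused downstream of GFP, with Cherry expressed from the same plasmid. As a pooled library in yeast, mid-log cultures grown in leucine-free medium were sorted into four equal gates by GFP/Cherry fluorescence ratio. Gate plasmids were PCR-amplified and Illumina-sequenced, and barcodes linked reads to strains. Each peptide received a protein stability index equal to the sum of each gate's read frequency times its gate number.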

| Sequence | protein stability index (doa10∆) | protein stability index (pdr5∆) | protein stability index (san1∆) | protein stability index (ubr1∆) |
| --- | --- | --- | --- | --- |
| TVPELEIPTQIYRTTRQ [ARP9] | 2.39 ± 0.076 | 2.8 ± 0.066 | 2.35 ± 0.08 | 2.83 ± 0.067 |
| SLAGFHKVQTKLTRELE [RPS7A] | 2.4 ± 0.065 | 1.98 ± 0.06 | 1.57 ± 0.13 | 2.04 ± 0.058 |
| KEHEPCIIFMDEVDAIG [RPT4] | 1.85 ± 0.049 | 1.92 ± 0.059 | 1.79 ± 0.12 | 1.98 ± 0.072 |
| SQLQPQPQPQPQQQQQH [YDL088C/ASM4] | 2.79 ± 0.087 | 2.95 ± 0.074 | 2.51 ± 0.13 | 2.88 ± 0.088 |
| DNDTVVTNDDKSDDDDH [SRB8] |  | 2.88 ± 0.15 | 3.24 ± 0.26 | 3.19 ± 0.11 |
| ERKTLERQQENLLIQRL [SWI3] | 3.07 ± 0.09 | 3.28 ± 0.087 | 3.12 ± 0.078 | 3.09 ± 0.067 |
| TPAEMSRPATTTRNGFM [FAS2] | 2.35 ± 0.038 | 2.57 ± 0.041 | 2.52 ± 0.05 | 2.52 ± 0.042 |
| FKSTESNISDEKSRISE [YMR129W/POM152] | 3.3 ± 0.2 | 3.01 ± 0.16 | 2.78 ± 0.12 | 3.05 ± 0.17 |
| NTFNYDVKISNDFFDNG [RPN4] | 1.94 ± 0.08 | 2.3 ± 0.07 | 2.52 ± 0.091 | 2.48 ± 0.072 |
| VYSVDPLEKITDAYLDQ [PRP8] | 3.33 ± 0.17 | 3.11 ± 0.15 | 2.98 ± 0.1 | 3.15 ± 0.15 |
| FRGNISQPKIGYGSNKK [RPL32] | 2.88 ± 0.094 | 2.88 ± 0.06 | 2.88 ± 0.067 | 2.89 ± 0.049 |
| TTDDKSMDTKKKHKQKK [BRN1] | 3.21 ± 0.092 | 3.32 ± 0.09 | 3.51 ± 0.068 | 3.27 ± 0.054 |
| TPLKARQREMAEEQTKL [YLR018C/POM34] | 3.33 ± 0.08 | 3.36 ± 0.093 | 3.31 ± 0.053 | 3.41 ± 0.056 |
| PRDLLRVIIQELRFPSP [PRP28] | 1.74 ± 0.047 | 1.94 ± 0.055 | 1.78 ± 0.064 | 1.72 ± 0.061 |
| CDGDTVWDKFAVNLLNC [SSN2] | 3.29 ± 0.1 | 3.3 ± 0.098 | 3.14 ± 0.07 | 3.11 ± 0.1 |
| EVNSLLLQVNKTFCEDP [GRR1] | 3.27 ± 0.099 | 3.34 ± 0.066 | 3.22 ± 0.054 | 3.24 ± 0.044 |
| FEEWIKMATDNKINSRN [BRN1] | 3.27 ± 0.13 | 3.17 ± 0.096 | 3.27 ± 0.11 | 3.7 ± 0.14 |
| VIVELLPQSEWKAPSSI [DIS3] | 2.79 ± 0.071 | 2.57 ± 0.062 | 2.02 ± 0.062 | 2.1 ± 0.048 |
| KLYDKTENDIKALQSIG [RPT4] | 2.65 ± 0.18 | 2.62 ± 0.2 | 1.87 ± 0.22 | 2.4 ± 0.22 |

| Sequence | protein stability index (doa10∆) | protein stability index (pdr5∆) | protein stability index (san1∆) | protein stability index (ubr1∆) |
| --- | --- | --- | --- | --- |
| QSKKLIEEKLSSFSKKT [YIL149C/MLP2] | 2.9 ± 0.056 | 3 ± 0.049 | 2.98 ± 0.053 | 3.02 ± 0.045 |
| LVHTQIRKTPLAQKKAH [RPL3] | 1.37 ± 0.057 | 1.38 ± 0.049 | 1.65 ± 0.069 | 1.63 ± 0.034 |
| AVKKLYAIIINYTKDNE [YCS4] | 1.82 ± 0.057 | 2.05 ± 0.068 | 1.93 ± 0.1 | 1.91 ± 0.029 |
| SVDIGVETILSGKARIC [FAS2] | 2.7 ± 0.12 | 2.75 ± 0.11 | 1.8 ± 0.12 | 2.78 ± 0.069 |
| ENVILGQMAPIGTGAFD [RPO21] | 2.33 ± 0.11 | 2.37 ± 0.13 | 2.36 ± 0.12 | 2.54 ± 0.056 |
| SSVYRLKFAVQVDKVTK [RPL26A] | 1.67 ± 0.16 |  | 2.71 ± 0.24 | 2.78 ± 0.27 |
| LDDQIFVCEKSIEFAKR [RPN6] |  |  |  | 1.27 ± 0.16 |
| TLDDLVTKWTNQLTESA [YJL041W/NSP1] | 2.76 ± 0.1 | 3 ± 0.099 | 2.85 ± 0.076 | 3.05 ± 0.061 |
| KEISARRYKLLTATPNS [POP1] | 2.1 ± 0.051 | 2.45 ± 0.061 | 2.32 ± 0.06 | 2.5 ± 0.051 |
| QLCQITCQILESGEDEA [RRP46] | 2.25 ± 0.19 | 1.98 ± 0.082 | 1.72 ± 0.09 | 1.99 ± 0.061 |
| RKSYKNQIADLSGKFST [ROX3] | 2.76 ± 0.082 | 2.94 ± 0.063 | 2.84 ± 0.06 | 2.92 ± 0.036 |
| QQQGQIPQSQQVPQVRS [SNF5] | 2.37 ± 0.036 | 2.73 ± 0.042 | 2.45 ± 0.063 | 2.36 ± 0.048 |
| MKVEVDSFSGAKIYPGR [RPL24B] | 3.11 ± 0.18 | 3.36 ± 0.15 | 2.52 ± 0.18 | 2.92 ± 0.18 |
| SKLKKETASFIPTKESL [YIL149C/MLP2] | 2.74 ± 0.072 | 3.15 ± 0.098 | 2.44 ± 0.15 | 2.57 ± 0.057 |
| GLSAREAVKQAAKIIYL [PRE10] | 2.86 ± 0.096 | 2.59 ± 0.063 | 2.59 ± 0.1 | 2.52 ± 0.053 |
| CDKSVCRKCYARLPPRA [RPL40A] | 2.5 ± 0.078 | 2.93 ± 0.073 | 2.56 ± 0.07 | 2.66 ± 0.062 |
| LTYAQQQLNKQRQDFER [SNF6] | 2.49 ± 0.073 | 2.44 ± 0.071 | 2.17 ± 0.083 | 2.6 ± 0.038 |
| PLSQDELISLRKILESS [YIL149C/MLP2] | 2.45 ± 0.077 | 2.67 ± 0.067 | 2.15 ± 0.076 | 2.32 ± 0.093 |
